# Laboratory results: the supplement of paper PMC10126150
# ± gives the standard deviation of the averaged measurements.
# System: ATP
# Test: switch fluorescence ratio, 500 uM ATP over buffer (Cy3 cluster intensity, sum of 5 cycles each) (fold (ratio)); higher = stronger signal-on switching upon ATP binding; sequences stand for … in TCGTCGGCAGCGTCAGATGTGTATAAGAGACAGTTTTTTTTTTTTTTTTTTTTTTTTT…TC
# Conditions: aptamer strand: ATP DNA aptamer (quencher-CACCTGGGGGAGTATTGCGGAGGAAGG + anchor), 100 nM annealed; ATP concentration: 500 uM
# Method in brief: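 Imaging in selection buffer was followed by imaging after 15 min with 500 uM ATP at 22 °C, for Cy3-labelled switching-strand clusters annealed to 100 nM quencher-labelled ATP aptamer on a modified Illumina MiSeq flow-cell. Five of these buffer/ATP cycles ran, separated by NaOH stripping and re-annealing. The fluorescence ratio per cluster is summed target-cycle over summed buffer-cycle Cy3 intensity, averaged per switch-domain sequence; clusters outside 100-1000 RFU were removed.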
# 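Note: ATP exposure 15 min at 22 °C before imaging.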
row,Sequence,switch fluorescence ratio
1,GCCATTTTGA,0.956 ± 0.037
2,GCCCAAGGA,1.028 ± 0.0062
3,GCCCATGAGT,1.01 ± 0.011
4,GCCCCCCACA,1.1 ± 0.048
5,GCCCGCAGAA,1.76 ± 0.024
6,GCCCGCCCGC,1.38 ± 0.18
7,GCCCGCTAAT,2.25 ± 0.052
8,GCCCGGGAGC,1 ± 0.037
9,GCCCGGGGAC,1.18 ± 0.12
10,GCCCTGGAAC,1.01 ± 0.022
11,GCCCTGGTGT,5.93 ± 0.54
12,GCCGAAGCTG,1.08 ± 0.003
13,GCCGAGTTTC,1.02 ± 0.014
14,GCCGCCTGAT,0.986 ± 0.021
15,GCCGCGTGCG,1.06 ± 0.024
16,GCCGCTGGGA,1.01 ± 0.022
17,GCCGCTGTCG,0.963 ± 0.045
18,GCCGGAAAGG,0.9857 ± 0.0075
19,GCCGGAGTTA,1.06 ± 0.017
20,GCCGGATTGC,1.07 ± 0.033
21,GCCGGGACCG,1.024 ± 0.01
22,GCCGGGACGG,0.965 ± 0.022
23,GCCGGGATGC,1.1 ± 0.11
24,GCCGGGGGTA,1.04 ± 0.079
25,GCCGGGTCCG,0.9938 ± 0.0011

row,Sequence,switch fluorescence ratio
1,GCCGGTCTGT,1.01 ± 0.03
2,GCCGGTGGAT,0.9793 ± 0.0084
3,GCCGGTGTTT,1.02 ± 0.036
4,GCCGTAAGGA,1.06 ± 0.033
5,GCCGTAGCTC,1.2 ± 0.078
6,GCCGTAGTAA,1.68 ± 0.011
7,GCCGTATGG,0.997 ± 0.012
8,GCCGTCGGCA,1 ± 0.017
9,GCCGTCTGCG,0.957 ± 0.011
10,GCCGTGAGAG,0.9842 ± 0.0013
11,GCCGTGGAGA,1.03 ± 0.021
12,GCCGTTAGCG,1.02 ± 0.049
13,GCCGTTGGAA,1.01 ± 0.024
14,GCCGTTTTAC,1.17 ± 0.05
15,GCCTAAAGTT,0.988 ± 0.015
16,GCCTAGGCGG,1.01 ± 0.062
17,GCCTCACCCG,1.26 ± 0.016
18,GCCTCTATTT,0.968 ± 0.019
19,GCCTGCGGGG,1.04 ± 0.046
20,GCCTGTTGCA,0.9709 ± 0.0037
21,GCCTTAATCT,1.01 ± 0.038
22,GCCTTAGCTC,1.04 ± 0.015
23,GCCTTCATGG,0.98 ± 0.044
24,GCCTTCCCGG,1.9 ± 0.08
25,GCCTTCCGTT,1.39 ± 0.49

row,Sequence,switch fluorescence ratio
1,GCCTTCGACT,1.051 ± 0.0017
2,GCCTTGGACT,0.976 ± 0.027
3,GCCTTGTATG,0.976 ± 0.03
4,GCCTTTGCAT,1.04 ± 0.039
5,GCCTTTTCGA,0.9827 ± 0.0025
6,GCCTTTTGCC,1.044 ± 0.0094
7,GCGAAAAAAG,0.99907 ± 0.00052
8,GCGAAAAACG,1.03 ± 0.056
9,GCGAAAGGAA,1.12 ± 0.14
10,GCGAAAGGCT,1.03 ± 0.024
11,GCGAAAGTCG,1.018 ± 0.0069
12,GCGAAATTAA,0.997 ± 0.018
13,GCGAACAACT,1.014 ± 0.0087
14,GCGAAGGGGT,1.02 ± 0.031
15,GCGAATAAGT,1.02 ± 0.031
16,GCGAATATCC,1.11 ± 0.017
17,GCGACAAAAT,1.11 ± 0.047
18,GCGAGAATAG,1 ± 0.014
19,GCGAGCAATG,1.03 ± 0.027
20,GCGAGCCTCC,1.3 ± 0.052
21,GCGAGGAGTA,1.01 ± 0.024
22,GCGAGGCCGT,1 ± 0.056
23,GCGAGGGAGT,1.02 ± 0.037
24,GCGAGGGGTT,0.969 ± 0.035
25,GCGAGGGTCG,1.01 ± 0.043

row,Sequence,switch fluorescence ratio
1,GCGAGGTAGG,0.9669 ± 0.0043
2,GCGAGGTCGG,1.03 ± 0.07
3,GCGAGGTGGG,0.999 ± 0.049
4,GCGATAGACG,0.99 ± 0.022
5,GCGATCGGTT,1.01 ± 0.049
6,GCGATGGGTC,1.06 ± 0.0091
7,GCGATTAAAG,1 ± 0.014
8,GCGATTTGTG,1.01 ± 0.037
9,GCGCAAATCG,1.009 ± 0.01
10,GCGCAAATTT,0.999 ± 0.017
11,GCGCACCTTT,1.01 ± 0.029
12,GCGCATGGTA,1.02 ± 0.026
13,GCGCCTAGGG,0.999 ± 0.018
14,GCGCGATATT,2.17 ± 0.21
15,GCGCGCACAT,1.01 ± 0.048
16,GCGCGGGGCC,0.999 ± 0.032
17,GCGCGGGGTA,0.997 ± 0.029
18,GCGCTATATG,1.16 ± 0.049
19,GCGCTGTCCG,0.9959 ± 0.0087
20,GCGCTTAAGT,0.986 ± 0.043
21,GCGGAAAAAG,0.957 ± 0.011
22,GCGGAACGTG,0.997 ± 0.04
23,GCGGAGAGAT,1.27 ± 0.33
24,GCGGAGAGTT,1.01 ± 0.019
25,GCGGAGTCGG,0.996 ± 0.053
